In patent US12331073B2, “Preparation of biologically active complexes” (priority 2017, dated 2025):

Columns and labels:
tumour cells = assay: Inherent tumoricidal effect of oleate salts
[1] = system: Human lung carcinoma cells (A549, ATCC); assay: Cell death assay (ATPlite, PrestoBlue, trypan blue exclusion); format: cell-based
Method: Human lung carcinoma cells (A549, ATCC) were cultured in RPMI-1640 with non-essential amino acids (1:100), 1 mM sodium pyruvate, 50 μg/ml Gentamicin and 5-10% fetal calf serum (FCS) at 37° C., 5% CO2. For cell death experiment, cells were grown on 96-well plate (2×10^4/well, Tecan Group Ltd) overnight. Cells were incubated with biologically active complexes obtained in Example 1 at dosages equivalent to either 7, 21 or 35 μM peptide in serum-free RPMI-1640 at 37° C. FCS was added after 1 hour. Cell death was quantified 3 hours after peptide-oleate treatment by three biochemical methods including 1) estimation of cellular ATP levels using luminescence based ATPlite™ kit (Perkin Elmer) 2) Presto Blue fluorescence staining (Invitrogen, A13262) and 3) trypan blue exclusion assay. Fluorescence and luminescence were measured using a microplate reader (Infinite F200, Tecan).

tumor cells = settings: early in vitro experiments; cited from earlier work
skin papillomas = settings: topical administration, placebo controlled clinical study; cited from earlier work
bladder cancer [2] = settings: local instillations; cited from earlier work
bladder cancer [3] = settings: murine bladder cancer model; cited from earlier work
glioblastoma xenograft = settings: rat glioblastoma xenograft model; cited from earlier work
cells = settings: Vukojevic et al. Langmuir 2010; cited from earlier work

Question: For `CCCCCCCC/C=C\CCCCCCCC(=O)[O-].[Na+]` [sodium oleate], which inherent tumoricidal effect (tumour cells) is on record?
Answer: appear to have some inherent tumoricidal effect

B1: BAMLET: bovine alpha-lactalbumin (700 μM) and sodium oleate (3.5 mM) dissolved in Phosphate Buffered Saline by vortexing (protein, UniProt P00711 20-142, looked up)
Alpha-lactalbumin: EQLTKCEVFRELKDLKGYGGVSLPEWVCTTFHTSGYDTQAIVQNNDSTEYGLFQINNKIWCKDDQNPHSSNICNISCDKFLDDDLTDDIMCVKKILDKVGINYWLAHKALCSEKLDQWLCEKL
modifications: complex with sodium oleate
notes: bovine alpha-lactalbumin (700 μM) and sodium oleate (3.5 mM) dissolved in Phosphate Buffered Saline by vortexing
Question: With B1 as the molecule, how does the “activity after lyophilisation of the complex” value ([1]; after lyophilisation) read?
Answer: removed the activity

Question: What about the “tumour cell death activity of freshly prepared solution” value ([1]; solution in PBS vortexed at room temperature, FIG. 4) of the same molecule?
Answer: biologically active and killed A549 lung carcinoma cells in a dose dependent manner

B2: HAMLET (protein, UniProt P00709 20-142, looked up)
Alpha-lactalbumin: KQFTKCELSQLLKDIDGYGGIALPELICTMFHTSGYDTQAIVENNESTEYGLFQISNKLWCKSSQVPQSRNICDISCDKFLDDDITDDIMCAKKILDIKGIDYWLAHKALCTEKLEQWLCEKL
modifications: complex with oleic acid
Question: What does the source list for B2?
Answer: anti-tumor activity in vitro (tumor cells): broad anti-tumor activity with a high degree of tumor selectivity; effect on skin papillomas (skin papillomas): removed or reduced the size of skin papillomas; tumor cell death in bladder cancer patients (bladder cancer [2]): caused rapid death of tumor cells but not of healthy tissue surrounding the tumor; therapeutic efficacy in bladder cancer (bladder cancer [3]): Therapeutic efficacy; cell death in healthy brain tissue (glioblastoma xenograft): without evidence of cell death in healthy brain tissue; tumor progression and survival (glioblastoma xenograft): delayed tumor progression and led to increased survival

B3: complexes using equine lysozyme and oleic acid: complexes using equine lysozyme and oleic acid (Vukojevic et al.) (protein, UniProt P11376 1-129, looked up)
Lysozyme C, milk isozyme: KVFSKCELAHKLKAQEMDGFGGYSLANWVCMAEYESNFNTRAFNGKNANGSSDYGLFQLNNKWWCKDNKRSSSNACNIMCSKLLDENIDDDISCAKRVVRDPKGMSAWKAWVKHCKDKDLSEYLASCNL
modifications: complex with oleic acid
Question: Which cell death (cells) does the source give for B3 here?
Answer: found to produce cell death
